Laboratory results: patent publication US20250090663A1

What was measured:
Cyno GPC3.hFc = experiment: SPR (Carterra)
Human GPC3.hFc = experiment: SPR (Carterra)

Kd (Cyno GPC3.hFc): 2.46 nM | Kd (Human GPC3.hFc): 2.63 nM
Substance: HGC33 scFv
